Measurements: article PMC4249942 (Biochemistry, 2012)
Changes are numbered by the printed parent chain. In names and notes the source's numbering stands.

B1: PerB (Caulobacter vibrioides) (protein)
chain: MSASLAIGGVVIIGGGGHAKVVIESLRACGETVAAIVDADPTRRAVLGVPVVGDDLALPMLREQGLSRLFVAIGDNRLRQKLGRKARDHGFSLVNAIHPSAVVSPSVRLGEGVAVMAGVAINADSWIGDLAIINTGAVVDHDCRLGAACHLGPASALAGGVSVGERAFLGVGARVIPGVTIGADTIVGAGGVVVRDLPDSVLAIGVPAKIKGDRS
B2: PerB (Caulobacter vibrioides; H141A) (protein)
chain: B1 chain with H141A
B3: PerB (Caulobacter vibrioides; H141N) (protein)
chain: B1 chain with H141N
B4: PerB (Caulobacter vibrioides; D142N) (protein)
chain: B1 chain with D142N

Legend:
PerB [1] = biological target: T1, PerB (Caulobacter vibrioides, UniProt O85353); assay: HPLC, ESI-MS and 1H NMR of the product; type: biochemical; details: acetyl CoA 1 mM, HEPES pH 7.5, 10 mM MgCl2, room temperature
PerB [2] = biological target: T1, PerB; assay: X-ray crystal structure, […] Å; type: binding
discontinuous HPLC assay [3] = substrate: CC(=O)SCCNC(=O)CCNC(=O)[C@H](O)C(C)(C)COP(=O)(O)OP(=O)(O)OC[C@H]1O[C@@H](n2cnc3c(N)ncnc32)[C@H](O)[C@@H]1OP(=O)(O)O; assay: discontinuous HPLC assay; type: biochemical, Caulobacter vibrioides; details: pH 8.0, 25 °C, GDP-perosamine co-substrate
discontinuous HPLC assay [4] = substrate: C[C@H]1O[C@H](OP(=O)(O)OP(=O)(O)OC[C@H]2O[C@@H](n3cnc4c(=O)[nH]c(N)nc43)[C@H](O)[C@@H]2O)[C@@H](O)[C@@H](O)[C@@H]1N; assay: discontinuous HPLC assay; type: biochemical, Caulobacter vibrioides; details: pH 8.0, 25 °C, acetyl CoA co-substrate

Molecule	Km (discontinuous HPLC assay [3])	Km (discontinuous HPLC assay [4])	also measured
C[C@H]1O[C@H](OP(=O)(O)OP(=O)(O)OC[C@H]2O[C@@H](n3cnc4c(=O)[nH]c(N)nc43)[C@H](O)[C@@H]2O)C(O)CC1N (some centres unmarked) [GDP-3-deoxyperosamine]	–	–	HPLC, ESI-MS and 1H NMR of the product (PerB [1]): Using GDP-3-deoxyperosamine, we were able to, indeed, show that PerB produces an acetylated form
CC(=O)N[C@H]1[C@H](O)[C@H](O)[C@@H](OP(=O)(O)OP(=O)(O)OC[C@H]2O[C@@H](n3cnc4c(=O)[nH]c(N)nc43)[C@H](O)[C@@H]2O)O[C@@H]1C [GDP-N-acetylperosamine]	–	–	X-ray crystal structure, 1.0 Å (PerB [2]; with CoA, formed by turnover in the crystal): The enzyme turned over, and CoA and GDP-N-acetylperosamine were left bound in the active site.
CC(C)(COP(=O)(O)OP(=O)(O)OC[C@H]1O[C@@H](n2cnc3c(N)ncnc32)[C@H](O)[C@@H]1OP(=O)(O)O)[C@@H](O)C(=O)NCCC(=O)NCCS [CoA]	–	–	X-ray crystal structure, 1.0 Å (PerB [2]; with GDP-perosamine): The first was that of the enzyme with bound CoA and GDP-perosamine.
B1	150 ± 20 µM	87 ± 11 µM	–
B2	110 ± 10 µM	200 ± 10 µM	–
B3	94 ± 17 µM	150 ± 10 µM	–
B4	59 ± 7 µM	110 ± 10 µM	–
